For assay [1], the target named is RSV fusion glycoprotein (RSV-F) (respiratory syncytial virus (strain not stated)). The assay is described as follows: SPR; sensors loaded with RSV-F, mAb in solution (Experiment 2). Background: In SPR one partner is held on a chip, and binding of the other changes the refractive index at the surface.
For assay [2], the target named is fusion glycoprotein of the RSV used in the neutralization assay of Example 1 (respiratory syncytial virus (strain not stated)). Kind of assay: cell-based or functional assay.
Assay [3] concerns the target fusion glycoprotein of the MPV D280 used in the neutralization assay of Example 3 (metapneumovirus (strain not stated)). The assay is described as follows: cell-based or functional assay.
Assay [4] has as its target MPV fusion glycoprotein with the D280N mutation (MPV-F N280) (metapneumovirus). Kind of assay: SPR; F protein loaded on streptavidin sensors, mAb in solution.
Assay [5] concerns the target MPV fusion glycoprotein without the D280N mutation (MPV-F D280) (metapneumovirus). The description is as above.
Assay [6] addresses fusion glycoprotein (F) of the MPV used in the neutralization of Table 34 (metapneumovirus). Kind of assay: cell-based or functional assay.
Assay [7] has as its target RSV fusion glycoprotein (RSV-F) of the RSV used in the neutralization of Table 33 (respiratory syncytial virus, strain not stated). The assay is described as follows: cell-based or functional assay.
The target of assay [8] is DS-Cav1 RSV F (respiratory syncytial virus). Kind of assay: ELISA on DS-Cav1 RSV F. (An ELISA detects its analyte on a solid surface through an enzyme-linked reagent.)

This note sets out measurements from patent US20260028391A1.

B1: MPK169-v2 (antibody, V domains shown)
VH: EVQLVQSGAEVKKPGESLTISCQTSGYSFINYWIGWVRQMPGKGLEWMGVIYPFDSDTEYSPSFRGHVTISADKSINTAYLQWNSLGASDTAMYYCARFTFGIALVSGDVNGEGHAFDVWGRGTLVTVSS
VL: EIVLTQSPPTLSVSPGQRATLSCRASQSVADKLAWYQQRPGQAPRLLIYGASSRATGVPARFSGSGSETEFTLTITSLQSEDFALYYCHQYNNWPHAFGQGTRLVIK
For orientation: Kd means the free concentration of one partner at which half of the binding sites on the other are occupied at equilibrium, for simple one-to-one binding. For B1, the Kd in assay [1] turned out to be 620 pM.

B2: MPK152 (antibody, V domains shown)
VH: EVQLVESGGGLVKPGGSLRLSCAASGLTISGYYMIWIRQAPGKGLEWISYISGSSSYTNYADSVKGRFTISRDNGQNTLFLQMDSLRVEDTAVYFCATEETPSPGPFGLWGQGTLVTVSS
VL: QSVVTQPPSVSGAPGQRVTISCTGTSSNIGAGYDVHWYQQFPGTSPKLLIFRNTNRPSGVPDRFSGSTSGSSASLAITGLQTEDEADYYCQSYDRSLDGWVFGGGTELTVL
In the case of B2, the RSV Neutralization - IC50 in assay [2] was found to be 0.0308 µg/mL. This molecule displayed an MPV D280 Neutralization - IC50 in assay [3] of 0.0152 µg/mL. Moreover, the Kd is 69 pM in assay [4] and 1 pM in assay [5].

B3: MPK129 (antibody, V domains shown)
VH: EVQLVESGGGLVKPGGSLRLSCEASGFSLSGYYMIWIRQAPGKGLEWISSISGSGNYIDYADSVKGRFTISRDNGHNTLYLQMNSLRVEDTAVYYCATEQTPSPGPFDHWGQGTLVTVSS
VL: QTVVTQPPSVSGAPGQRVTISCTGTSSNIGTGYDVHWYQQFPGTSPKLLIYRNTNRPSGVPDRFSGSKSGSSASLAIAGLQAEDEADYYCQSYDRSVSGWVFGGGTKLTVL
In the case of B3, in assay [2], the RSV Neutralization - IC50 came out at 0.0149 µg/mL. In assay [3], this molecule gave an MPV D280 Neutralization - IC50 of 0.0081 µg/mL. Moreover, the Kd in assay [4] was 1900 pM; in assay [5], 1 pM.

B4: MPK132-v1 (antibody, V domains shown)
VH: EVQLVESGGGLVKPGGSLRLSCEASGISLSGYYMIWIRQAPGKGLEWISSISSSSNYIDYADSVKGRFTISRHNGQNTLYLQMNSLRVEDTAVYFCATEQTPSPGPFELWGQGILVTVSS
VL: QSVVTQPPSVSGAPGQRVTIFCTGTSSNIGTGYDVHWYQQFPGTSPKLLIYRNTNRPSGVPDRFSGSKSGSSASLAIAGLQAEDEADYYCQSYDRSVSGWVFGGGTKLTVL
Take B4: in assay [2], the RSV Neutralization - IC50 is 0.018 µg/mL. In assay [3], this molecule yielded an MPV D280 Neutralization - IC50 of 0.0101 µg/mL. In addition, the Kd in assay [4] was found to be 4300 pM; in assay [5], 1 pM.

B5: MPK153 (antibody, V domains shown)
VH: EVHLVESGGGLVKPGGSLRLSCAASGFTFTGYFMIWIRQAPGKGLEWISYISSSSNYINYADSVKGRFTISRDNGQNTLYLQMNSLRPDDTAVYYCATEQVPSPGPFDLWGQGTLVTVSS
VL: QSVLTQPPSVSGAPGQRVIISCTGTSSNIGAGYDVHWYQQFPGASPKLLIFRNTDRPSGVPDRFSGSKSGSSASLAIAGLQAEDEADYYCQSYDRSLDGWVFGGGTKVTVL
Molecule B5 gave an RSV Neutralization - IC50 in assay [2] of 0.0296 µg/mL. Moreover, the MPV D280 Neutralization - IC50 in assay [3] was found to be 0.0199 µg/mL. For the same molecule, the Kd worked out at 5500 pM in assay [4] and 1 pM in assay [5].

B6: MPK157 (antibody, V domains shown)
VH: EVQLVESGGGLVKPGGSLRLSCSASGFTLSGYNMNWVRQAPGKGLEWISYISASSSYINYADSVKGRFTISRDNGRSSLYLQMNSLRAEDTAVYFCTTQAELPGWFDPWGQGTLVTVSS
VL: QSVLTQPPSMSGAPGQRVTISCTGSSSNIGAGYDVNWYRQLPGTAPQLLIYRNTNRPSGVPDRFSGSNSGTSASLAITGLQADDEAHYYCQSYDRSLSGWVFGGGTKLTVL
In assay [2], B6 returned an RSV Neutralization - IC50 of 0.0241 µg/mL. Further, the MPV D280 Neutralization - IC50 in assay [3] was determined as 0.0079 µg/mL. Besides, the dissociation constant (Kd) in assay [4] was 1200 pM; in assay [5] it was 1 pM.

B7: MPK155 (antibody, V domains shown)
VH: EVQLVESGGGLVKPGGSLRLSCEASGISLSGYYMIWIRQAPGKGLEWISSISSSSNYIDYADSVRGRFTISRHNGQNTLYLQMNSLRVEDTAVYFCATEQTPSPGPFDLWGQGILVTVSS
VL: QSVLTQPPSVSGAPGQRVTIFCTGTSSNLGAGYDVHWYQQFPGTSPKLLIYRYTNRPSGVPDRFSGSKSGSSASLAIAGLQAEDEADYYCQSYDRSVSGWVFGGGTKLTVL
With B7, the RSV Neutralization - IC50 in assay [2] stood at 0.0265 µg/mL. Moreover, in assay [3], the MPV D280 Neutralization - IC50 was 0.0141 µg/mL. Besides, the dissociation constant (Kd) stood at 2600 pM in assay [4] and 1 pM in assay [5].

B8: MPK177 (antibody, V domains shown)
VH: EVQLVQSGAEVKKPGESLKISCQVSGYSFMNYWVGWVRQMPGKGLEWMGIIYPFDSDTIYSPSFQGHVTISADTSITTAYLHWSSLKASDTATYYCARFTFGIAVVADGLSGDGEAFDIWGQGTVVTVSS
VL: DIVMTQTPATLSVSPGERATLSCRASQSVAGKLAWYQQRPGQTPRLLIYGASTRATGVPARFSGSGSETEFTLTISSLQSEDFAVYYCQQYSSWPHAFGQGTRLDIK
In assay [2], B8 gave an RSV Neutralization - IC50 of 0.001 µg/mL. In addition, the Kd in assay [1] turned out to be 1 pM.

B9: MPK195 (antibody, V domains shown)
VH: EVQLVQSGAAVKKPGESLKISCRGSGYSFINYWIGWVRQMPGKGLEWMGVIYPFDSDTQYSPSFQGHVTISADKSINTAYLQWDSLKAADTAIYYCARFTFGIALSTADVYGEGQAFDIWGPGTMVTVSS
VL: EIVLTQSPATLSVSPGERATLSCRASQSVAGKIAWYQQRPGQAPRLLIYGASTRATGVPARFSGSGSETEFTLTISSLQSEDFAVYYCQQYSNWPQAFGPGTRLDMK
In the case of B9, the RSV Neutralization - IC50 in assay [2] came to 0.0011 µg/mL. The Kd in assay [1] amounted to 1 pM.

B10: MPK171-v1 (antibody, V domains shown)
VH: QVQLVQSGAEVKKPGESLKISCKGSGYSFINYWIGWVRQMPGKGLEWMGIIYPFDSDTKYSPSFQGHVTISADKSINTAYVQWSSLKASDTAMYYCARFTFGIAVVTDDVSGEGHAFDIWGQGTMVTVSS
VL: QSVLTQPPSVSGAPGQRVTISCAGSSSNIGAGFDVHWYQQVPGTAPKLLIYNTDNRASGVPDRFSASKSGTSASLAITGLQAEDEADYYCQSYDNSLSGVFGGGTKLTVL
In assay [2], B10 yielded an RSV Neutralization - IC50 of 0.0043 µg/mL. Also, the Kd in assay [1] stood at 1200 pM.

B11: MPK167 (antibody, V domains shown)
VH: EVQLVQSGPEVKKPGESLKISCKASGYSFINYWIGWVRQMPGKGLEWMGIIYPFDSDTQYSPSFQGHVTISADKSINTAYVQWSSLKASDTAMYYCARFTFGIAVVAGDVSGEGHAFDIWGQGTMVTVSS
VL: EIVMMQSPATLSVSPGERATLSCRASQSVAGNLAWYQQSPGQAPRLLIYGASTRATGVPARFSGSGSETEFTLTISSLQSEDFAVYFCQQYSNWPHAFGQGTRLDIK
B11: in assay [2], the RSV Neutralization - IC50 was found to be 0.001 µg/mL. Also, the Kd in assay [1] was found to be 11 pM.

B12: MPK191 (antibody, V domains shown)
VH: EVQLVQSGAEVKKPGESLKISCKGSGYSFINYWIGWVRQMPGKGLEWMGIIYPFDSDTKYSPSFQGHVTISADKSINTAYVQWSGLKASDTAMYYCARFTFGIAVVAGDVTGEGHAFDVWGQGTMVTVSS
VL: EIVMTQSPATLSVSPGDRATLSCRASQSVAGNLAWYQQRPGQTPRLLIYGASTRASGVPARFSGSGSETEFTLTISSLQSEDFAVYYCQQYDNWPHAFGQGTRLDIK
Molecule B12 had an RSV Neutralization - IC50 in assay [2] of 0.0012 µg/mL. In assay [1], this molecule had a Kd of 29 pM.

B13: MPK182 (antibody, V domains shown)
VH: EVQLVESGGGLVKPGGSLRLSCTASLSTFSDYYMTWIRQAPGKGLEWLGYISGSQSQTNLADSVKGRFTISRDNAKKSLYLQMNSLRVEDTATYFCARVHLWFGDLNALDLWGQGTKVTVSS
VL: QSVLTQPPSVSGAPGQRVTISCAGSSSNIGAGFDVHWYQQVPGTAPKLLIYNTDNRASGVPDRFSASKSGTSAFLAITGLQAEDEADYYCQSYDNSLSGVFGGGTKLTVL
On to B13, for which the Kd in assay [1] was 2800 pM.

B14: RSD5-FR-GL-rIgG1 (antibody, V domains shown)
VH: QVQLVESGGGVVQPGRSLRLSCAASGFAFNNFAMHWVRQAPGKGLEWVAVVSYDGTSPYYADSVKGRFTISRDNSKNTLYLQMNSLRAEDTAVYYCARGLGSGSYSWIGYFYAMDVWGQGTTVTVSS
VL: QSALTQPASVSGSPGQSITISCTGTSSDVGGYVYVSWYQQHPGKAPKLMIYDVSNRPSGVSNRFSGSKSGNTASLTISGLQAEDEADYYCISYTDRNTVVFGGGTKLTVL
Consider B14, for which, in assay [6], the IC50 (ng/mL) in neutralization against MPV was above 2000 ng/mL. In addition, in assay [7], the IC50 (ng/mL) in neutralization against RSV was 1.2 ng/mL. In assay [2], this molecule displayed an RSV Neutralization - IC50 of 0.00541 µg/mL.

B15: MPH12 VH-FRGL / MPH12 VL-FRGL-D25E (antibody, V domains shown)
VH: QVQLVESGGGLVKPGGSLRLSCAASGFTFSGFYMKWIRQAPGKGLEWVSSISASGSYTNYADSVEGRFTISRDNAKNSLYLQMNSLRAEDTAVYYCARGDSYCGASACHGEFFHKWGQGTLVTVSS
VL: QSVLTQPPSVSGAPGQRVTISCTGSESNIGADFDVHWYQQLPGTAPKLLIYGNINRPSGVPDRFSGSKSGTSASLAITGLQAEDEADYYCQSYDRSLHYVFGTGTKVTVL
For orientation: EC50 means the concentration that produces a half-maximal response. A lower EC50 goes with an effect from little substance. For the molecule B15, the EC50 in assay [8] amounted to 0.0472 µg/mL.

B16: MPH12 VH-FRGL-S63A / MPH12 VL-FRGL-D25E (antibody, V domains shown)
VH: QVQLVESGGGLVKPGGSLRLSCAASGFTFSGFYMKWIRQAPGKGLEWVSSISASGSYTNYADAVEGRFTISRDNAKNSLYLQMNSLRAEDTAVYYCARGDSYCGASACHGEFFHKWGQGTLVTVSS
VL: QSVLTQPPSVSGAPGQRVTISCTGSESNIGADFDVHWYQQLPGTAPKLLIYGNINRPSGVPDRFSGSKSGTSASLAITGLQAEDEADYYCQSYDRSLHYVFGTGTKVTVL
For B16, the concentration giving a half-maximal response (EC50) in assay [8] was found to be 0.0347 µg/mL.

B17: MPK127 (antibody, V domains shown)
VH: QVQLVISGGGLVKPGGSLRLSCAASGFRIDSFSLNWVRQAPGKGLEWLASVSASSSYIDYRDSVAGRFTISRDNAQNSLYLQMDTLRAEDTAVYYCARTNGYETGSFDVWGQGTLVTVAS
VL: QSVLTQPPSVSGAPGQRVTISCTGSSSNIGAGYDVHWYQQLPGKAPKLLINANNNRPSGVPDRFSGSNSGTSASLAITGLQAEDEADYYCQSYDKTLSGYVFGLGTTVTVL
As to B17, the RSV Neutralization - IC50 in assay [2] was determined as 0.0787 µg/mL. Also, the MPV D280 Neutralization - IC50 in assay [3] is 0.0243 µg/mL. For the same molecule, the Kd in assay [4] and in assay [5] was 1 pM throughout.
